The source of these data is patent US20260258115A1 (MAPP BIOPHARMACEUTICAL, published 2026).

For experiment [1], the target named is RSV F on RSV-A2 virus (Respiratory Syncytial Virus (RSV-A2), UniProt P03420 26-574). As to the kind of experiment: cell-based or functional assay.
The target of experiment [2] is RSV prefusion F (preF), DS-Cav1 (Respiratory Syncytial Virus, UniProt P03420 26-513). As to the kind of experiment: BLI, IgG on anti-human IgG sensor, 100 nM antigen, 1:1 fit. (In general: BLI is a label-free optical method that tracks binding on a fibre tip over time.)
In experiment [3] the target is RSV postfusion F (postF), F ΔFP (Respiratory Syncytial Virus, UniProt P03420 26-513). Described as above.

B1: ADI-41460 (antibody, V domains shown)
VH: QVTLKESGPALVKPTQTLTLTCTFSGFSLNTRGMCVSWVRQPPGKALEWLARIDWDDDKNYSTSLRTRLTISKDTSRNQVVLAMANMDPVDTATYYCARCARYDRSGYYVWYLDSWGQGTLVTVSS
VL: DIQMTQSPSSLSASVGDRVTITCRASQTIASYLNWYQQKPGKAPKLLIYVASTLQSGVPSRFSGSGSGTDFTLTISSLQPEDFATYYCQQSYSLTQWTFGQGTKVEIK
B1: in experiment [1], the “Neutralization IC50 (RSV subtype A)” value was greater than 25 µg/mL. For the same molecule, the figures for the Kd in experiment [2] and in experiment [3] were 1.23 nM and 0.632 nM, respectively.

B2: ADI-41468 (antibody, V domains shown)
VH: QVQLQQWGAGPLKSSETLSLTCEVYGGPFSGYSWSWIRQPPGKGLEWIGEINHSGSTNYNPSLKSRVSFSVDTSKNQFSLKLSSVTAADTAVYYCARGAGFCTSTSCPPGLYYYYGMDVWGHGTTVTVSS
VL: SYELTQPLSVSVALGQTARITCGGNNIESKNVHWYQQMPGLAPVMVIYRDTNRPSGIPERFSGSNSGNTATLTISRAQAGDEADYYCQVWDSGTVIFGGGTKLTVL
notes: also called Ab 752; Antibody Number 752
With B2, the “Neutralization IC50 (RSV subtype A)” value in experiment [1] was greater than 25 µg/mL. The Kd stood at 0.716 nM in experiment [2] and 0.344 nM in experiment [3].

B3: ADI-41459 (antibody, V domains shown)
VH: QVQLVESGGGLVQPGGSLRLSCAASGFPFSAYGINWVRQAPGKGLEWVSYISSTSTTIKYADSVKGRFTISRDDAKNSLYLQLRSLRPEDTAVYYCAGGVWSGYYIDFWGQGTPVTVSS
VL: NFMLTQPQSVSESPGKTVTISCTRSSGSIGSNFVQWYQQRPGSSPTTVIYEDYQRPSGVPDRFSGSIDSSSNSASLTISGLKTEDEADYYCQSYDADMMVFGGGTKLTVL
notes: also called Ab 743; Antibody Number 743
On to B3, for which, in experiment [1], the “Neutralization IC50 (RSV subtype A)” value was greater than 25 µg/mL. Besides, the Kd in experiment [2] came to 1.89 nM; in experiment [3], 0.343 nM.

B4: ADI-41474 (antibody, V domains shown)
VH: QVQLVQSGAEVKRPGASVKVSCKISGYTFTSHYIHWLRQAPGQGLEWMGWINPNTGDTKYEQKFQGRVTMTRDTSLSTAYMELRRLRSDDTAVYYCARDSFYAANGYYFVWFDPWGQGALVTVSS
VL: DIQMTQSPTSLSASVGDRVTITCRASQSISSYLNWYQQKPGKAPRFLIYAASSLQSGVPSRFRGSGSGTDFTLTISSLQPEDFATYYCQQSYSSPYTFGQGTKVEIK
notes: also called Ab 757; Antibody Number 757
B4: the “Neutralization IC50 (RSV subtype A)” value in experiment [1] stood at 0.26 µg/mL. Further, the equilibrium dissociation constant (Kd) was determined as 17.8 nM in experiment [2] and 34.8 nM in experiment [3].

B5: ADI-41463 (antibody, V domains shown)
VH: QVQLVQSGAEVKKPGASVKVSCTASGYSFTDYDISWVRQAPGQGLEWMGWISAYNGNTNYAQKFQDRVTMNTDTSTNTAYMELRGLRSDDTAVYYCARNCYYGSGTCYIEDYYFDYWGQGTLVTVSS
VL: DIQMTQSPSSLSASVGDRVTITCRASQDIKNDLGWYQQKPGKPPKRLIYGASRSQSGVPSRFSGSGSGTDFTLTIYSLQPEDFATYYCLQHSDYPFTFGQGTRLEIK
notes: also called Ab 747; Antibody Number 747
On to B5, for which, in experiment [1], the “Neutralization IC50 (RSV subtype A)” value was greater than 25 µg/mL. Moreover, the dissociation constant Kd amounted to 2.68 nM in experiment [2] and 0.485 nM in experiment [3].

B6: ADI-41455 (antibody, V domains shown)
VH: QVQLQESGPGLVKPSQTLSLTCSVSEGSVISGDYYWSWIRQSPGKGLEWLGYIHYSGSTYYNPSLKSRVTISVDTSKKQFSLKLSSVTAADTAVYYCARDLGCIGGVCSAYGLEHNYYFGMDVWGQGTTVTVSS
VL: EIVLTQSPATLSLSPGERATLSCRASQSVSSYLAWYQQKPGQAPRLLIYTASNRATGIPARFSGSGSGTDFTLTISSLEPEDFAVYYCQQRSSWPPYTFGQGTKLEIK
Regarding B6, in experiment [1], the “Neutralization IC50 (RSV subtype A)” value was greater than 25 µg/mL. In addition, the Kd in experiment [2] stood at 1.53 nM; in experiment [3], 0.638 nM.

B7: ADI-41475 (antibody, V domains shown)
VH: QVQLQESGPGLVKPSQTLSLTCAISGDSVSSNSAAWNWIRQSPSRGLEWLGRTYYRSKWWTDYAVSVKSRITINPDTSKNQFSLQLNSVTPEDTAVYYCARDPDSGNYFHYYGMDVWGQGTTVTVSS
VL: ETTLTQSPATLSLSPGERATLSCRASQSASSYLAWYQQKPGQAPRLLIYDASKRATGIPARFSGSGSGTDFSLTISSLEPEDFAVYYCQLRSKWPPYTFGQGTKVEIK
Consider B7, for which the “Neutralization IC50 (RSV subtype A)” value in experiment [1] is greater than 25 µg/mL. Further, the values for the Kd in experiment [2] and in experiment [3] were 12.2 nM and 25.5 nM, respectively.

B8: ADI-41471 (antibody, V domains shown)
VH: QVQLVQSGADVKKPGSSVKISCKASGGSFITNSLSWVRRAPGQGLEWMGGIIPVSGTTTYAQKFLGRVTFTADESTSTAYMELNSLRSEDTAVYYCARFLGTPYPNVHYGMDVWGQGTTVTVSS
VL: DIRVTQSPSSLSASVGARVTITCRASQSISTYLNWYQEKPGKAPKLLIYAASSLQRGVPSRFSGSGSETTFTLTISSLQPEDFATYYCQQSYTAAYNFGQGTKVEIK
With B8, the “Neutralization IC50 (RSV subtype A)” value in experiment [1] is greater than 25 µg/mL. Also, the Kd came out at 3.75 nM in experiment [2] and 0.761 nM in experiment [3].

B9: ADI-41472 (antibody, V domains shown)
VH: QVQLVQSGAEVKKPGSSVKVSCKASGGTFSSYAISWVRQAPGQGLEWMGRIIPVLDITNYAQKFQGRVTIMADKSTSTAYMELSSLRSEDTAIYYCARETSNFYFYYNAMDVWGQGTTVTVSS
VL: QPVLTQPPSASGSPGQSVTISCTGTSSDVGGDNYVSWYQQHPGKAPKLLIYEVSKRPSGVPDRFSGSRSGHTASLTVSGLQAEDEADYYCSSYAGRNNLGVFGGGTKLTVL
Turning to B9, in experiment [1], the “Neutralization IC50 (RSV subtype A)” value is 0.27 µg/mL. The Kd stood at 3.05 nM in experiment [2] and 1.06 nM in experiment [3].

B10: ADI-41456 (antibody, V domains shown)
VH: EVQLLESGGGLFHPGGSLTLSCVASGFTLSTYYMHWVRQAPGKGLVWVARINSDGGYTTYADSVKGRFTVSRDNAKNTLYLQMNSLRVEDTAVYYCAREWVEFDSWGQGTLVTVSS
VL: NFMLTQPHSVSASPGKTVTISCTRSSGNIASNYVQWYQQRPGSSPTTVITEDNQRPSGVPDRFSGSIDSSSNSASLTISGLKTEDEADYYCQSYDSSTYVFGTGTKLTVL
notes: also called Ab 740; Antibody Number 740
Consider B10, for which the “Neutralization IC50 (RSV subtype A)” value in experiment [1] was greater than 25 µg/mL. The Kd in experiment [2] turned out to be 1.48 nM; in experiment [3], 0.267 nM.

B11: ADI-41473 (antibody, V domains shown)
VH: QVQLVQSGPGLVKPSQTLSLTCAISGDSVSSNSAAWSWIRQSPSRGLEWLGRTYYRSKWYYDHAVSVEGRITINADTSKNHFSLQLNSVTPEDTAVYYCARDPDSGNYFHYYGMDVWGQGTTVTVSS
VL: ETTLTQSPATLSLSPGERATLSCRTSQSVSSYLAWYQQKPGQAPRLLIYDASRRATGIPARFSGSGSGTHFTLTITSLEPEDFAVYYCQQRSKWPPYSFGQGTKVDIK
B11: the “Neutralization IC50 (RSV subtype A)” value in experiment [1] was greater than 25 µg/mL. For the same molecule, the dissociation constant Kd in experiment [2] is 12.7 nM; in experiment [3], 31.2 nM.

B12: ADI-41466 (antibody, V domains shown)
VH: QVQLVQSGAEVKKPGASVKVSCKASGYTFNFYYMHWVRQAPGQGLEWMGWINPKSGGTSYAQKFQGRVIMTGDTSISTTYMELSRLRSDDTAVYYCARADTGLELDVWGQGTTVTVSS
VL: QSALIQPASVSGSPGQSITISCTGTSSDVGGYNYVSWYQQHPGKAPKLILYDVSKRPSGVSNRFSGSKSGNTASLTISGLQAEDESDYFCSSYTRSNTVVFGGGTKVTVL
notes: also called Ab 750; Antibody Number 750
B12: the “Neutralization IC50 (RSV subtype A)” value in experiment [1] was greater than 25 µg/mL. For the same molecule, the Kd stood at 2.05 nM in experiment [2] and 0.383 nM in experiment [3].

B13: ADI-41481 (antibody, V domains shown)
VH: QVQLVESGPGLVKPSETLSLACSVSGVSISTYYWTWIRQPPGKGLEWIGYISYSGSTNYNPSLKSRVTISADTSKNQFSLRLNSVTAADTAVYYCARTYYDFWSTYYGEFDHWGHGTLVTVSS
VL: SYELTQPLSVSVALGQTARITCGGNNIESKNVHWYQQKPGQAPVVVMYRDTNRPSGIPERFSGSNSGNTATLTISRAQAGDEADYYCQVWDSGTAGVVFGGGTKVTVL
notes: also called Ab 763; Antibody Number 763
Consider B13, for which the “Neutralization IC50 (RSV subtype A)” value in experiment [1] came to 0.68 µg/mL. In addition, the Kd in experiment [2] was 2.09 nM; in experiment [3] it was 0.443 nM.

B14: ADI-41480 (antibody, V domains shown)
VH: EVQLLESGPGLVRPSGTLSLTCTVSGDSISGSNWWAWVRQPPGRRLEWIGEIYYRGATDYNSSLKSRVIISVDNSKNQFSLNLRSVTAADTAIYYCARVEKFATSGYYISYFDYWGQGTLVTVSS
VL: DIRVTQSPSSLSASVGDRVTITCRASQSISTYLNWYQHNPGKAPKLLIYAASSLQSGVPSRFSGSGSGTHFTLTISSLQPADFSTYYCQQSYSSPWTFGQGTKVEIK
As for B14, in experiment [1], the “Neutralization IC50 (RSV subtype A)” value is greater than 25 µg/mL. In addition, the values for the Kd in experiment [2] and in experiment [3] were 4.34 nM and 0.703 nM, respectively.

B15: ADI-41461 (antibody, V domains shown)
VH: QVQLVQSGAEVKKPGASVKVSCRASGYTFSSYDINWVRQATGQGLEWMGWMSPNSANTGYAQKFQGRVTMTRDTSINTAYMELSSLSSEDTAVYYCARFLGYCSGGSCYPGYGMDVWGQGTTVTVSS
VL: EIVLTQSPDSLAVSLGERATINCKSSQNVLYSSNNKDYLSWYQQKPGQPPKLLIYWASTRESGVPDRFSGSGSGTDFTLTINSLQAEDVAVYYCQQYYGTPYTFGQGTKLEIK
With B15, the “Neutralization IC50 (RSV subtype A)” value in experiment [1] was greater than 25 µg/mL. The dissociation constant (Kd) was 2.3 nM in experiment [2] and 0.548 nM in experiment [3].

B16: ADI-41469 (antibody, V domains shown)
VH: EVQLVESGGGVVQPGRSLRLSCAASGFTFSSYGMHWVRQAPGKGLEWVAVISYDGSFIKYADSMMGRFTISRDNSKNTLYLQMSSLRPEDTATYYCAKDALIPEYWGQGTLVTVSS
VL: QPVLTQPASVSGSPGQSITISCTGTSSDVGGYNYVSWYQKHPDKAPRVIIYEVSNRPSGVSNRFSGSKSGNTASLTISGLQAEDEADYYCCSYTSTSGVVFGGGTKLTVL
Take B16: the “Neutralization IC50 (RSV subtype A)” value in experiment [1] worked out at 0.35 µg/mL. In addition, the results for the Kd in experiment [2] and in experiment [3] were 0.28 nM and 0.345 nM, respectively.

B17: ADI-41464 (antibody, V domains shown)
VH: QVQLVESGPGLVRPSGTLSLTCTVSGDSVNSYRWSWIRQSPGKGLEWIGYISYSGETNYNPSLKSRVSISVGTSRYQFFLKLSSVTAADTATYYCARDKTTIFGVSHYYFGVDVWGQGTTVTVSS
VL: DIVMTQTPLSLPVTPGEPASISCRSSQSLLKSDGYNSLDWYLQRPGQSPQLLIYLGSNRASGVPARFSGSGSGTDFTLKISRVEAEDVGVYYCMQALQTPFTFGPGTKVEIK
Regarding B17, in experiment [1], the “Neutralization IC50 (RSV subtype A)” value was greater than 25 µg/mL. Further, the results for the Kd in experiment [2] and in experiment [3] were 1.91 nM and 0.313 nM, respectively.

One may read the Kd as a measure of binding affinity in units of concentration. A low value points to tighter binding.
